In the RNAGym collection of RNA variant scans (doi:10.1093/molbev/msab373):

B1: Azoarcus group I ribozyme (parent)
chain: GUGCCUUGCGCCGGGAAACCACGCAAGGGAUGGUGUCAAAUUCGGCGAAACCUAAGCGCCCGCCCGGGCGUAUGGCAACGCCGAGCCAAGCUUCGGCGCCUGCGCCGAUGAAGGUGUAGAGACUAGACGGCACCCACCUAAGGCAAACGCUAUGGUGAAGGCAUAGUCCAGGGAGUGGCGAAAGUCACACAAACCGG

Variants of: B1
Assay: reverse-splicing fitness (ratio to wild type); higher = more active; in vitro selection; Mg2+ level not given
Method in brief: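 An in vitro group I ribozyme library with randomized positions was T7-transcribed and gel-purified. In triplicate, 10 pmol RNA in EPPS pH 7.5 was reacted with 50 pmoles of a 30-nt RNA substrate for 1 h at 37 °C across several added MgCl2 levels (1–48 mM), then stopped with EDTA. Products were reverse transcribed from a substrate-complementary primer, PCR-amplified and sequenced (HiSeq 4000). Fitness is a variant's read proportion after selection over that before, normalised to wild type.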

Compared with C82A A111G A120U A145G C150A C169U U176G, C82A A111G A120U A145G C150A C169U U176C is higher in reverse-splicing fitness: 0.00288 for the first, 0.00493 for the second.

Compared with C82A A111G A120U A145G C150A C169U U176A, C82A A111G A120U A145C C150G C169U is lower in reverse-splicing fitness: 0.0049 for the first, 0.00332 for the second.

Going from C82A A111G A120U A145C C150G C169A to C82A A111G A120U A145C C150G C169G, the reverse-splicing fitness rises from 0.0025 to 0.00351.

Going from C82A A111G A120U A145U C150G C169U to C82A A111G A120U A145U C150G C169G, the reverse-splicing fitness rises from 0.00268 to 0.00311.

Going from C82A A111G A120U A145U C150G C169A to C82A A111G A120U A145C U176A, the reverse-splicing fitness rises from 0.00373 to 0.00841.

First: C82A A111G A120U A145C U176G
Second: C82A A111G A120U A145C U176C
The reverse-splicing fitness of the first is lower: 0.00284 for the first, 0.0111 for the second.

Compared with C82A A111G A120U A145U C150A C169U U176C, C82A A111G A120U A145U C150A C169U U176A is lower in reverse-splicing fitness: 0.00285 for the first, 0.00277 for the second.

Compared with C82A A111G A120U A145U C150A C169U U176G, C82A A111G A120U C169G U176G is higher in reverse-splicing fitness: 0.0018 for the first, 0.00181 for the second.

Going from C82A A111G A120U C169G U176A to C82A A111G A120U C169G U176C, the reverse-splicing fitness rises from 0.00294 to 0.00341.

Compared with C82A A111G A120U C150A C169G U176C, C82A A111G A120U C150A C169G U176G is lower in reverse-splicing fitness: 0.00412 for the first, 0.00222 for the second.

Going from C82A A111G A120U C150A C169G U176A to C82A A111G A120U A145G C150A C169U, the reverse-splicing fitness falls from 0.00908 to 0.00455.

Going from C82A A111G A120U A145G C150A C169G to C82A A111G A120U A145G C150A C169A, the reverse-splicing fitness rises from 0.00666 to 0.00676.

Going from C82A A111G A120U C150G U176G to C82A A111G A120U C150G U176A, the reverse-splicing fitness rises from 0.0031 to 0.00446.

Compared with C82A A111G A120U C150G U176C, C82A A111G A120U A145C is higher in reverse-splicing fitness: 0.00582 for the first, 0.027 for the second.

First: C82A A111G A120U A145G
Second: C82A A111G A120U A145U
The reverse-splicing fitness of the first is lower: 0.0318 for the first, 0.0342 for the second.

First: C82A A111G A145C C169U U176A
Second: C82A A111G A145C C169U U176G
The reverse-splicing fitness of the first is higher: 0.013 for the first, 0.00571 for the second.

Compared with C82A A111G A145C C169U U176C, C82A A111G A120U A145C C150U C169U U176G is lower in reverse-splicing fitness: 0.0113 for the first, 0.00193 for the second.

First: C82A A111G A120U A145C C150U C169U U176C
Second: C82A A111G A120U A145C C150U C169U U176A
The reverse-splicing fitness of the first is lower: 0.0025 for the first, 0.0026 for the second.

Going from C82A A111G A120U A145C C150A to C82A A111G A120U A145C C150U, the reverse-splicing fitness rises from 0.00468 to 0.0111.

Going from C82A A111G A120U A145C C150G to C82A A111G A120U A145C C150G C169G U176A, the reverse-splicing fitness falls from 0.00637 to 0.00289.

First: C82A A111G A120U A145C C150G C169G U176G
Second: C82A A111G A120U A145C C150G C169G U176C
The reverse-splicing fitness of the first is lower: 0.00217 for the first, 0.00289 for the second.

First: C82A A111G A120U A145C C150A C169A U176A
Second: C82A A111G A120U A145C C150A C169A U176G
The reverse-splicing fitness of the first is higher: 0.0022 for the first, 0.00214 for the second.

First: C82A A111G A120U A145C C150A C169A U176C
Second: C82A A111G A120U A145G C169A U176A
The reverse-splicing fitness of the first is lower: 0.0024 for the first, 0.0033 for the second.

First: C82A A111G A120U A145G C169A U176G
Second: C82A A111G A120U A145G C169A U176C
The reverse-splicing fitness of the first is lower: 0.002 for the first, 0.00333 for the second.

First: C82A A111G A145C C150G C169A U176C
Second: C82A A111G A145C C150G C169A U176A
The reverse-splicing fitness of the first is lower: 0.00805 for the first, 0.00847 for the second.

Compared with C82A A111G A145C C150G C169A U176G, C82A A111G A120U A145G C150U C169A U176G is lower in reverse-splicing fitness: 0.00658 for the first, 0.00232 for the second.

Compared with C82A A111G A120U A145G C150U C169A U176A, C82A A111G A120U A145G C150U C169A U176C is lower in reverse-splicing fitness: 0.00727 for the first, 0.0045 for the second.

Compared with C82A A111G A120U A145G C150U C169U U176A, C82A A111G A120U A145G C150U C169U U176C is lower in reverse-splicing fitness: 0.00523 for the first, 0.00442 for the second.

First: C82A A111G A120U A145G C150U C169U U176G
Second: C82A A111G A145C C169G U176G
The reverse-splicing fitness of the first is lower: 0.00242 for the first, 0.00487 for the second.

Compared with C82A A111G A145C C169G U176A, C82A A111G A145C C169G U176C is lower in reverse-splicing fitness: 0.0278 for the first, 0.0155 for the second.

First: C82A A111G A120U C169A U176G
Second: C82A A111G A120U C169A U176A
The reverse-splicing fitness of the first is lower: 0.00152 for the first, 0.00268 for the second.

Going from C82A A111G A120U C169A U176C to C82A A111G A120G U176G, the reverse-splicing fitness rises from 0.00316 to 0.00613.

First: C82A A111G A120G U176A
Second: C82A A111G A120G U176C
The reverse-splicing fitness of the first is lower: 0.0146 for the first, 0.0182 for the second.

First: C82A A111G A145C C150G
Second: C82A A111G A145C C150A
The reverse-splicing fitness of the first is higher: 0.0325 for the first, 0.018 for the second.

Compared with C82A A111G A145C C150U, C82A A111G A120U A145U C150G C169U U176A is lower in reverse-splicing fitness: 0.0851 for the first, 0.00252 for the second.

Compared with C82A A111G A120U A145U C150G C169U U176C, C82A A111G A120U A145U C150G C169U U176G is lower in reverse-splicing fitness: 0.00353 for the first, 0.0026 for the second.

First: C82A A111G A120U A145U C150U U176C
Second: C82A A111G A120U A145U C150U U176G
The reverse-splicing fitness of the first is higher: 0.0108 for the first, 0.00398 for the second.

First: C82A A111G A120U A145U C150U U176A
Second: C82A A111G A145C C150A U176G
The reverse-splicing fitness of the first is higher: 0.00864 for the first, 0.00802 for the second.

Going from C82A A111G A145C C150A U176C to C82A A111G A145C C150A U176A, the reverse-splicing fitness falls from 0.0184 to 0.015.

First: C82A A111G A120U A145U C150G C169A U176G
Second: C82A A111G A120U A145U C150G C169A U176C
The reverse-splicing fitness of the first is lower: 0.00276 for the first, 0.00338 for the second.

Compared with C82A A111G A120U A145U C150G C169A U176A, C82A A111G A120U A145U C150G U176A is lower in reverse-splicing fitness: 0.0039 for the first, 0.0037 for the second.

Going from C82A A111G A120U A145U C150G U176C to C82A A111G A120U A145U C150G U176G, the reverse-splicing fitness falls from 0.00587 to 0.0023.
